Data taken from patent US20240400654A1.
“And” between values parts separate entries of the source, which are not always exact repeats. Equal entries are not always repeated.

B1: KB001 parental mouse Fab FASEBA variant VH N100S (Fab, V domains shown)
VH: EVQLKQSGPGLVAPSQSLSITCTVSGFSLSIYSVHWVRQPPGKGLEWLGMIWGGGSSDYNSALKSRLSISKDNSKSQVFLKMNSLQTDDTAMYYCARNGSFYAMDYWGQGTSVTVSS
VL: QIVLTQSPAIMSASLGERVTMTCTASSSVSSSFLHWYQQKPGSSPQLWIYSTSNLASGVPARFSGSGSGTSYSLTISSMEAEDAATYYCHQYHHSPYIYTFGGGTKLEIK
B2: KB001 parental mouse Fab FASEBA variant VH A103G (Fab, V domains shown)
VH: EVQLKQSGPGLVAPSQSLSITCTVSGFSLSIYSVHWVRQPPGKGLEWLGMIWGGGSSDYNSALKSRLSISKDNSKSQVFLKMNSLQTDDTAMYYCARNGNFYGMDYWGQGTSVTVSS
VL: QIVLTQSPAIMSASLGERVTMTCTASSSVSSSFLHWYQQKPGSSPQLWIYSTSNLASGVPARFSGSGSGTSYSLTISSMEAEDAATYYCHQYHHSPYIYTFGGGTKLEIK
B3: KB001 parental mouse Fab FASEBA variant VH N100A (Fab, V domains shown)
VH: EVQLKQSGPGLVAPSQSLSITCTVSGFSLSIYSVHWVRQPPGKGLEWLGMIWGGGSSDYNSALKSRLSISKDNSKSQVFLKMNSLQTDDTAMYYCARNGAFYAMDYWGQGTSVTVSS
VL: QIVLTQSPAIMSASLGERVTMTCTASSSVSSSFLHWYQQKPGSSPQLWIYSTSNLASGVPARFSGSGSGTSYSLTISSMEAEDAATYYCHQYHHSPYIYTFGGGTKLEIK
B4: KB001 parental mouse Fab FASEBA variant VH N100Y (Fab, V domains shown)
VH: EVQLKQSGPGLVAPSQSLSITCTVSGFSLSIYSVHWVRQPPGKGLEWLGMIWGGGSSDYNSALKSRLSISKDNSKSQVFLKMNSLQTDDTAMYYCARNGYFYAMDYWGQGTSVTVSS
VL: QIVLTQSPAIMSASLGERVTMTCTASSSVSSSFLHWYQQKPGSSPQLWIYSTSNLASGVPARFSGSGSGTSYSLTISSMEAEDAATYYCHQYHHSPYIYTFGGGTKLEIK
B5: KB001 parental mouse Fab FASEBA variant VH F101L (Fab, V domains shown)
VH: EVQLKQSGPGLVAPSQSLSITCTVSGFSLSIYSVHWVRQPPGKGLEWLGMIWGGGSSDYNSALKSRLSISKDNSKSQVFLKMNSLQTDDTAMYYCARNGNLYAMDYWGQGTSVTVSS
VL: QIVLTQSPAIMSASLGERVTMTCTASSSVSSSFLHWYQQKPGSSPQLWIYSTSNLASGVPARFSGSGSGTSYSLTISSMEAEDAATYYCHQYHHSPYIYTFGGGTKLEIK
B6: KB001 parental mouse Fab FASEBA variant VH A103M (Fab, V domains shown)
VH: EVQLKQSGPGLVAPSQSLSITCTVSGFSLSIYSVHWVRQPPGKGLEWLGMIWGGGSSDYNSALKSRLSISKDNSKSQVFLKMNSLQTDDTAMYYCARNGNFYMMDYWGQGTSVTVSS
VL: QIVLTQSPAIMSASLGERVTMTCTASSSVSSSFLHWYQQKPGSSPQLWIYSTSNLASGVPARFSGSGSGTSYSLTISSMEAEDAATYYCHQYHHSPYIYTFGGGTKLEIK
B7: KB001 parental mouse Fab FASEBA variant VH A103L (Fab, V domains shown)
VH: EVQLKQSGPGLVAPSQSLSITCTVSGFSLSIYSVHWVRQPPGKGLEWLGMIWGGGSSDYNSALKSRLSISKDNSKSQVFLKMNSLQTDDTAMYYCARNGNFYLMDYWGQGTSVTVSS
VL: QIVLTQSPAIMSASLGERVTMTCTASSSVSSSFLHWYQQKPGSSPQLWIYSTSNLASGVPARFSGSGSGTSYSLTISSMEAEDAATYYCHQYHHSPYIYTFGGGTKLEIK
B8: KB001 parental mouse Fab FASEBA variant VH N100R (Fab, V domains shown)
VH: EVQLKQSGPGLVAPSQSLSITCTVSGFSLSIYSVHWVRQPPGKGLEWLGMIWGGGSSDYNSALKSRLSISKDNSKSQVFLKMNSLQTDDTAMYYCARNGRFYAMDYWGQGTSVTVSS
VL: QIVLTQSPAIMSASLGERVTMTCTASSSVSSSFLHWYQQKPGSSPQLWIYSTSNLASGVPARFSGSGSGTSYSLTISSMEAEDAATYYCHQYHHSPYIYTFGGGTKLEIK
B9: KB001 parental mouse Fab FASEBA variant VH N100C (Fab, V domains shown)
VH: EVQLKQSGPGLVAPSQSLSITCTVSGFSLSIYSVHWVRQPPGKGLEWLGMIWGGGSSDYNSALKSRLSISKDNSKSQVFLKMNSLQTDDTAMYYCARNGCFYAMDYWGQGTSVTVSS
VL: QIVLTQSPAIMSASLGERVTMTCTASSSVSSSFLHWYQQKPGSSPQLWIYSTSNLASGVPARFSGSGSGTSYSLTISSMEAEDAATYYCHQYHHSPYIYTFGGGTKLEIK
B10: KB001 parental mouse Fab FASEBA variant VH F101S (Fab, V domains shown)
VH: EVQLKQSGPGLVAPSQSLSITCTVSGFSLSIYSVHWVRQPPGKGLEWLGMIWGGGSSDYNSALKSRLSISKDNSKSQVFLKMNSLQTDDTAMYYCARNGNSYAMDYWGQGTSVTVSS
VL: QIVLTQSPAIMSASLGERVTMTCTASSSVSSSFLHWYQQKPGSSPQLWIYSTSNLASGVPARFSGSGSGTSYSLTISSMEAEDAATYYCHQYHHSPYIYTFGGGTKLEIK
B11: KB001 parental mouse Fab FASEBA variant VH N100E (Fab, V domains shown)
VH: EVQLKQSGPGLVAPSQSLSITCTVSGFSLSIYSVHWVRQPPGKGLEWLGMIWGGGSSDYNSALKSRLSISKDNSKSQVFLKMNSLQTDDTAMYYCARNGEFYAMDYWGQGTSVTVSS
VL: QIVLTQSPAIMSASLGERVTMTCTASSSVSSSFLHWYQQKPGSSPQLWIYSTSNLASGVPARFSGSGSGTSYSLTISSMEAEDAATYYCHQYHHSPYIYTFGGGTKLEIK
B12: KB001 parental mouse Fab FASEBA variant VH A103V (Fab, V domains shown)
VH: EVQLKQSGPGLVAPSQSLSITCTVSGFSLSIYSVHWVRQPPGKGLEWLGMIWGGGSSDYNSALKSRLSISKDNSKSQVFLKMNSLQTDDTAMYYCARNGNFYVMDYWGQGTSVTVSS
VL: QIVLTQSPAIMSASLGERVTMTCTASSSVSSSFLHWYQQKPGSSPQLWIYSTSNLASGVPARFSGSGSGTSYSLTISSMEAEDAATYYCHQYHHSPYIYTFGGGTKLEIK
B13: KB001 parental mouse Fab FASEBA variant VH N100F (Fab, V domains shown)
VH: EVQLKQSGPGLVAPSQSLSITCTVSGFSLSIYSVHWVRQPPGKGLEWLGMIWGGGSSDYNSALKSRLSISKDNSKSQVFLKMNSLQTDDTAMYYCARNGFFYAMDYWGQGTSVTVSS
VL: QIVLTQSPAIMSASLGERVTMTCTASSSVSSSFLHWYQQKPGSSPQLWIYSTSNLASGVPARFSGSGSGTSYSLTISSMEAEDAATYYCHQYHHSPYIYTFGGGTKLEIK
B14: KB001 parental mouse Fab FASEBA variant VH N100L (Fab, V domains shown)
VH: EVQLKQSGPGLVAPSQSLSITCTVSGFSLSIYSVHWVRQPPGKGLEWLGMIWGGGSSDYNSALKSRLSISKDNSKSQVFLKMNSLQTDDTAMYYCARNGLFYAMDYWGQGTSVTVSS
VL: QIVLTQSPAIMSASLGERVTMTCTASSSVSSSFLHWYQQKPGSSPQLWIYSTSNLASGVPARFSGSGSGTSYSLTISSMEAEDAATYYCHQYHHSPYIYTFGGGTKLEIK
B15: KB001 parental mouse Fab FASEBA variant VH N100G (Fab, V domains shown)
VH: EVQLKQSGPGLVAPSQSLSITCTVSGFSLSIYSVHWVRQPPGKGLEWLGMIWGGGSSDYNSALKSRLSISKDNSKSQVFLKMNSLQTDDTAMYYCARNGGFYAMDYWGQGTSVTVSS
VL: QIVLTQSPAIMSASLGERVTMTCTASSSVSSSFLHWYQQKPGSSPQLWIYSTSNLASGVPARFSGSGSGTSYSLTISSMEAEDAATYYCHQYHHSPYIYTFGGGTKLEIK
B16: KB001 parental mouse Fab FASEBA variant VH F101W (Fab, V domains shown)
VH: EVQLKQSGPGLVAPSQSLSITCTVSGFSLSIYSVHWVRQPPGKGLEWLGMIWGGGSSDYNSALKSRLSISKDNSKSQVFLKMNSLQTDDTAMYYCARNGNWYAMDYWGQGTSVTVSS
VL: QIVLTQSPAIMSASLGERVTMTCTASSSVSSSFLHWYQQKPGSSPQLWIYSTSNLASGVPARFSGSGSGTSYSLTISSMEAEDAATYYCHQYHHSPYIYTFGGGTKLEIK
B17: KB001 parental mouse Fab FASEBA variant VH N100T (Fab, V domains shown)
VH: EVQLKQSGPGLVAPSQSLSITCTVSGFSLSIYSVHWVRQPPGKGLEWLGMIWGGGSSDYNSALKSRLSISKDNSKSQVFLKMNSLQTDDTAMYYCARNGTFYAMDYWGQGTSVTVSS
VL: QIVLTQSPAIMSASLGERVTMTCTASSSVSSSFLHWYQQKPGSSPQLWIYSTSNLASGVPARFSGSGSGTSYSLTISSMEAEDAATYYCHQYHHSPYIYTFGGGTKLEIK
B18: KB001 parental mouse Fab FASEBA variant VH F101M (Fab, V domains shown)
VH: EVQLKQSGPGLVAPSQSLSITCTVSGFSLSIYSVHWVRQPPGKGLEWLGMIWGGGSSDYNSALKSRLSISKDNSKSQVFLKMNSLQTDDTAMYYCARNGNMYAMDYWGQGTSVTVSS
VL: QIVLTQSPAIMSASLGERVTMTCTASSSVSSSFLHWYQQKPGSSPQLWIYSTSNLASGVPARFSGSGSGTSYSLTISSMEAEDAATYYCHQYHHSPYIYTFGGGTKLEIK
B19: KB001 parental mouse Fab FASEBA variant VH N100K (Fab, V domains shown)
VH: EVQLKQSGPGLVAPSQSLSITCTVSGFSLSIYSVHWVRQPPGKGLEWLGMIWGGGSSDYNSALKSRLSISKDNSKSQVFLKMNSLQTDDTAMYYCARNGKFYAMDYWGQGTSVTVSS
VL: QIVLTQSPAIMSASLGERVTMTCTASSSVSSSFLHWYQQKPGSSPQLWIYSTSNLASGVPARFSGSGSGTSYSLTISSMEAEDAATYYCHQYHHSPYIYTFGGGTKLEIK
B20: KB001 parental mouse Fab FASEBA variant VH N100Q (Fab, V domains shown)
VH: EVQLKQSGPGLVAPSQSLSITCTVSGFSLSIYSVHWVRQPPGKGLEWLGMIWGGGSSDYNSALKSRLSISKDNSKSQVFLKMNSLQTDDTAMYYCARNGQFYAMDYWGQGTSVTVSS
VL: QIVLTQSPAIMSASLGERVTMTCTASSSVSSSFLHWYQQKPGSSPQLWIYSTSNLASGVPARFSGSGSGTSYSLTISSMEAEDAATYYCHQYHHSPYIYTFGGGTKLEIK

Key:
[1] = target: HRgpA-6H (Porphyromonas gingivalis) (UniProt P28784); experiment: ELISA, FASEBA screening, coated HRgpA-6H 0.0625 ug/ml
UniProt P28784, sequence (P28784 228-860): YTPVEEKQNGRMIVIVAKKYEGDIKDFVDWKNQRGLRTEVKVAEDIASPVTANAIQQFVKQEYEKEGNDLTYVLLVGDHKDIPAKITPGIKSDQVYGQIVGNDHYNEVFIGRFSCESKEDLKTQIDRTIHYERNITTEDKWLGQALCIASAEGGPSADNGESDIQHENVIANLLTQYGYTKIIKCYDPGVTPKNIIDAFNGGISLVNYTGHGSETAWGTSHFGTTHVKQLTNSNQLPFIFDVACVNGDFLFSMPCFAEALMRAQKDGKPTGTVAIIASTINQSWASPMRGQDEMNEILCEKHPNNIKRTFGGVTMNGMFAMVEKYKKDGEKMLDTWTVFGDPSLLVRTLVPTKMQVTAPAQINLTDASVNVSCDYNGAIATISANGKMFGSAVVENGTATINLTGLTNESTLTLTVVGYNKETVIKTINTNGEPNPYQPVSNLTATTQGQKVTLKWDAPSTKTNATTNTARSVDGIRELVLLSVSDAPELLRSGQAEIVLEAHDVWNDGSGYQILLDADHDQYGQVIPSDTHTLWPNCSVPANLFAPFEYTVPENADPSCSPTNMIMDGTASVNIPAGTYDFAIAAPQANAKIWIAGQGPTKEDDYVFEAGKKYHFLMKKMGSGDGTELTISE

[2] = target: HRgpA-6H (Porphyromonas gingivalis) (UniProt P28784); experiment: ELISA, FASEBA screening, coated HRgpA-6H; variant OD over parental WT Fab OD

Row | Binder | OD450 nm [1] | Ratio OD(Variant)/OD(WT) [2]
1 | B1 | 0.799 and 0.844 and 0.805 | 0.943 and 0.996 and 0.95
2 | B2 | 0.815 and 0.804 and 0.755 | 0.945 and 0.933 and 0.876
3 | B3 | 0.809 | 0.955
4 | B4 | 0.757 and 0.784 and 0.699 | 0.894 and 0.926 and 0.825
5 | B5 | 0.681 | 0.804
6 | B6 | 0.811 | 0.941
7 | B7 | 0.783 | 0.908
8 | B8 | 0.788 | 0.93
9 | B9 | 0.688 | 0.812
10 | B10 | 0.678 and 0.725 | 0.8 and 0.856
11 | B11 | 0.823 | 0.972
12 | B12 | 0.849 and 0.807 | 0.985 and 0.936
13 | B13 | 0.779 | 0.92
14 | B14 | 0.817 and 0.736 and 0.789 | 0.965 and 0.869 and 0.932
15 | B15 | 0.769 and 0.814 | 0.908 and 0.961
16 | B16 | 0.825 and 0.828 and 0.802 | 0.974 and 0.978 and 0.947
17 | B17 | 0.756 and 0.783 | 0.893 and 0.924
18 | B18 | 0.755 | 0.891
19 | B19 | 0.801 and 0.791 | 0.946 and 0.934
20 | B20 | 0.846 | 0.999
